Measured values from the supplement of paper PMC6757056.
± gives the standard deviation of the averaged measurements.

B1: library; a variant is named by its letters at N, in order (parent)
chain: GCUGUCACCGGUGUAUUACCCUAGUGGUCGACCGGUCUGAUGAGUCUNNNNNNAGACGAAACAGC

Columns and labels:
hypoxanthine [1] = variants of: B1; assay: FACS-Seq fitted mean relative fluorescence mCherry/BFP without ligand (log10 relative fluorescence); ligand: hypoxanthine (xanthine aptamer); higher = higher reporter protein expression; conditions: HEK293T, ligand present: no
Method in brief: (§1)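 Fluorescence comes from a normal fit to bin counts, normalized against controls. HEK293T libraries lentivirally given a ribozyme-switch mCherry reporter and an EF1α-BFP marker were enriched, incubated 48 h with or without ligand, and sorted by mCherry/BFP into 6 bins. Bin genomic DNA was PCR-amplified, barcoded and sequenced on MiSeq. The log10(mCherry/BFP) mean was scaled to five spiked-in control ribozymes.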

hypoxanthine [2] = variants of: B1; assay: normalized RNA/DNA level with ligand (relative to sTRSVctl = 100) (log10 (% of sTRSVctl)); ligand: hypoxanthine (xanthine aptamer); higher = less ribozyme self-cleavage, higher mRNA level; conditions: ligand concentration (+) RNA-Seq: 5 mM, HEK293T, reporter: mCherry (pCS4076), ligand present: yes
Method in brief: (§2)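 Library plasmids encoding reporter-linked ribozyme switches (mCherry, or eGFP for some folinic acid experiments) were transfected into HEK293T at 4 µg per 6-well well. Ligand, when used, was added 1 h before transfection. Total RNA was extracted with EDTA 72 h later, then reverse-transcribed, amplified, barcoded and sequenced. RNA level was RNA reads over DNA reads, divided by a spiked-in non-cleaving control (or the top 25 sequences), ×100, log10; only sequences with ≥100 DNA reads were kept.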

hypoxanthine [3] = variants of: B1; assay: normalized RNA/DNA level without ligand (relative to sTRSVctl = 100) (log10 (% of sTRSVctl)); ligand: hypoxanthine (xanthine aptamer); higher = less ribozyme self-cleavage, higher mRNA level; conditions: HEK293T, reporter: mCherry (pCS4076), ligand present: no
Method in brief: as §2

hypoxanthine [4] = variants of: B1; assay: FACS-Seq fitted mean relative fluorescence mCherry/BFP with ligand (log10 relative fluorescence); ligand: hypoxanthine (xanthine aptamer); ligand concentration (+) FACS-Seq: 5 mM; higher = higher reporter protein expression; conditions: HEK293T, ligand present: yes
Method in brief: as §1

Row | Variant | FACS-Seq fitted mean (log10) (hypoxanthine [1]) | normalized RNA/DNA level with ligand (log10) (hypoxanthine [2]) | normalized RNA/DNA level without ligand (log10) (hypoxanthine [3]) | FACS-Seq fitted mean (log10) (hypoxanthine [4])
1 | CUAGUC | 0.639 ± 0.036 | 1.99 ± 0.074 | 1.91 ± 0.046 | 0.658 ± 0.03
2 | CUAGUG | -0.00638 ± 0.00052 | 1.95 ± 0.1 | 1.85 ± 0.028 | 0.202 ± 0.017
3 | GUCAAA | 0.456 ± 0.0096 | 1.91 ± 0.047 | 1.733 ± 0.0061 | 0.532 ± 0.0073
4 | GUCAAG | 0.65 ± 0.074 | 1.85 ± 0.077 | 1.46 ± 0.07 | 0.667 ± 0.011
5 | AUAUAC | 0.568 ± 0.087 | 1.88 ± 0.019 | 1.8 ± 0.069 | 0.572 ± 0.028
6 | AUAUAG | 0.389 ± 0.046 | 1.83 ± 0.03 | 1.54 ± 0.057 | 0.611 ± 0.076
7 | AUAUAA | 0.487 ± 0.056 | 1.883 ± 0.015 | 1.77 ± 0.027 | 0.6452 ± 0.0064
8 | GUAAGA | 0.291 ± 0.0051 | 1.89 ± 0.0055 | 1.73 ± 0.01 | 0.214 ± 0.029
9 | GUAAGG | 0.181 ± 0.047 | 1.87 ± 0.042 | 1.38 ± 0.015 | 0.408 ± 0.026
10 | GUAAGC | 0.302 ± 0.007 | 1.886 ± 0.015 | 1.53 ± 0.023 | 0.667 ± 0.078
11 | UUAUGA | -0.0342 ± 0.015 | 1.91 ± 0.04 | 1.64 ± 0.039 | -0.0882 ± 0.046
12 | UUAUGG | 0.281 ± 0.094 | 1.89 ± 0.032 | 1.666 ± 0.015 | 0.317 ± 0.05
13 | AGUUUA | 0.474 ± 0.011 | 1.93 ± 0.025 | 1.79 ± 0.027 | 0.651 ± 0.098
14 | CUCACU | 0.473 ± 0.021 | 1.99 ± 0.041 | 1.92 ± 0.05 | 0.419 ± 0.12
15 | GUCCAC | -0.048 ± 0.034 | 1.94 ± 0.054 | 1.848 ± 0.0045 | 0.0349 ± 0.08
16 | GUCCAA | 0.669 ± 0.0074 | 1.89 ± 0.065 | 1.79 ± 0.035 | 0.655 ± 0.08
17 | UUAGAA | 0.092 ± 0.0099 | 1.89 ± 0.043 | 1.694 ± 0.0073 | 0.285 ± 0.021
18 | GGUUGG | -0.0305 ± 0.021 | 1.83 ± 0.074 | 1.27 ± 0.014 | 0.558 ± 0.021
19 | UUACAC | 0.362 ± 0.025 | 1.92 ± 0.079 | 1.81 ± 0.025 | 0.444 ± 0.051
20 | UUACAU | 0.352 ± 0.018 | 1.93 ± 0.051 | 1.87 ± 0.026 | 0.453 ± 0.11
21 | UGUUGU | 0.254 ± 0.025 | 1.913 ± 0.0038 | 1.738 ± 0.011 | 0.57 ± 0.019
22 | CUAAAC | 0.4073 ± 0.0033 | 1.89 ± 0.025 | 1.827 ± 0.015 | 0.415 ± 0.1
23 | GGUUUA | 0.149 ± 0.053 | 1.96 ± 0.024 | 1.87 ± 0.034 | 0.3294 ± 0.00074
24 | GGUUUG | 0.0895 ± 0.042 | 1.9 ± 0.019 | 1.614 ± 0.0086 | 0.485 ± 0.021

Row | Variant | FACS-Seq fitted mean (log10) (hypoxanthine [1]) | normalized RNA/DNA level with ligand (log10) (hypoxanthine [2]) | normalized RNA/DNA level without ligand (log10) (hypoxanthine [3]) | FACS-Seq fitted mean (log10) (hypoxanthine [4])
25 | GGUUUU | 0.313 ± 0.029 | 1.93 ± 0.053 | 1.894 ± 0.0067 | 0.378 ± 0.028
26 | GUACCA | 0.512 ± 0.037 | 1.944 ± 0.012 | 1.867 ± 0.006 | 0.532 ± 0.03
27 | GUACCG | 0.26 ± 0.029 | 1.903 ± 0.0046 | 1.624 ± 0.0025 | 0.511 ± 0.015
28 | UUACCG | -0.405 ± 0.057 | 1.899 ± 0.011 | 1.75 ± 0.052 | -0.0713 ± 0.036
29 | AUCAGU | 0.169 ± 0.016 | 1.885 ± 0.012 | 1.772 ± 0.0019 | 0.476 ± 0.069
30 | AUCAGA | -0.0827 ± 0.0075 | 1.9287 ± 0.00064 | 1.828 ± 0.0044 | 0.00695 ± 0.085
31 | AUCAGG | 0.386 ± 0.072 | 1.87 ± 0.01 | 1.48 ± 0.061 | 0.617 ± 0.048
32 | AUACUA | 0.515 ± 0.014 | 1.9061 ± 0.00059 | 1.774 ± 0.001 | 0.512 ± 0.018
33 | AUACUG | 0.294 ± 0.022 | 1.86 ± 0.077 | 1.43 ± 0.088 | 0.634 ± 0.025
34 | GUAUAU | -0.558 ± 0.056 | 1.84 ± 0.024 | 1.8 ± 0.041 | -0.474 ± 0.016
35 | GUAUAC | 0.143 ± 0.058 | 1.94 ± 0.067 | 1.82 ± 0.067 | 0.251 ± 0.093
36 | GUAUAG | -0.0857 ± 0.034 | 1.854 ± 0.0081 | 1.44 ± 0.065 | 0.479 ± 0.013
37 | GUAAUU | 0.444 ± 0.086 | 1.91 ± 0.047 | 1.9 ± 0.025 | 0.229 ± 0.036
38 | GUAAUC | 0.801 ± 0.026 | 1.95 ± 0.046 | 1.756 ± 0.012 | 0.81 ± 0.068
39 | GUAAUG | 0.27 ± 0.022 | 1.853 ± 0.0059 | 1.52 ± 0.028 | 0.529 ± 0.0072
40 | GUAGGC | 0.126 ± 0.003 | 1.87 ± 0.043 | 1.38 ± 0.043 | 0.611 ± 0.02
41 | GUAGGU | 0.5146 ± 0.0047 | 1.95 ± 0.02 | 1.79 ± 0.034 | 0.578 ± 0.11
42 | GUAGGG | 0.143 ± 0.034 | 1.86 ± 0.055 | 1.49 ± 0.037 | 0.5302 ± 0.0037
43 | AUCCAG | 0.222 ± 0.062 | 1.92 ± 0.034 | 1.55 ± 0.096 | 0.446 ± 0.052
44 | AUCCAA | 0.618 ± 0.059 | 1.923 ± 0.016 | 1.79 ± 0.07 | 0.708 ± 0.06
45 | CUAGGA | 0.7992 ± 0.0063 | 1.938 ± 0.0084 | 1.859 ± 0.018 | 0.697 ± 0.022
46 | CUAGGG | 0.0497 ± 0.042 | 1.89 ± 0.035 | 1.53 ± 0.028 | 0.294 ± 0.039
47 | GUAGUG | 0.125 ± 0.029 | 1.94 ± 0.037 | 1.428 ± 0.0021 | 0.532 ± 0.051
48 | GUAGUA | 0.68 ± 0.083 | 1.899 ± 0.01 | 1.749 ± 0.014 | 0.725 ± 0.029

Row | Variant | FACS-Seq fitted mean (log10) (hypoxanthine [1]) | normalized RNA/DNA level with ligand (log10) (hypoxanthine [2]) | normalized RNA/DNA level without ligand (log10) (hypoxanthine [3]) | FACS-Seq fitted mean (log10) (hypoxanthine [4])
49 | AUACGC | 0.365 ± 0.04 | 1.91 ± 0.056 | 1.72 ± 0.042 | 0.5194 ± 0.0036
50 | AUACGG | -0.0504 ± 0.059 | 1.785 ± 0.012 | 1.27 ± 0.082 | 0.547 ± 0.084
51 | UUAAGA | 0.6835 ± 0.0045 | 1.884 ± 0.0019 | 1.68 ± 0.059 | 0.618 ± 0.02
52 | UUAAGG | 0.505 ± 0.031 | 1.925 ± 0.015 | 1.77 ± 0.058 | 0.538 ± 0.077
53 | AUACAC | 0.399 ± 0.093 | 1.915 ± 0.019 | 1.762 ± 0.0072 | 0.456 ± 0.1
54 | AUACAA | 0.364 ± 0.062 | 1.9 ± 0.037 | 1.76 ± 0.024 | 0.532 ± 0.013
55 | AUACAG | 0.1 ± 0.018 | 1.814 ± 0.017 | 1.45 ± 0.039 | 0.561 ± 0.031
56 | GUAGCC | 0.609 ± 0.017 | 1.982 ± 0.014 | 1.83 ± 0.02 | 0.678 ± 0.059
57 | GUAGCU | -0.279 ± 0.094 | 1.98 ± 0.03 | 1.88 ± 0.063 | -0.197 ± 0.0065
58 | UUAUUA | 0.289 ± 0.0048 | 1.96 ± 0.086 | 1.91 ± 0.062 | 0.398 ± 0.036
59 | UUAGGG | 0.351 ± 0.012 | 1.87 ± 0.037 | 1.69 ± 0.017 | 0.655 ± 0.028
60 | UUAGGC | 0.15 ± 0.015 | 1.95 ± 0.05 | 1.887 ± 0.014 | 0.181 ± 0.0045
61 | AUAAGU | 0.122 ± 0.094 | 1.852 ± 0.0077 | 1.629 ± 0.011 | 0.279 ± 0.058
62 | AUAAGC | 0.474 ± 0.0089 | 1.918 ± 0.014 | 1.786 ± 0.01 | 0.6615 ± 0.0049
63 | AUAAGA | 0.457 ± 0.047 | 1.9 ± 0.045 | 1.715 ± 0.0051 | 0.556 ± 0.068
64 | AUAAGG | 0.0649 ± 0.081 | 1.8 ± 0.019 | 1.4 ± 0.038 | 0.345 ± 0.062
65 | CUAAUG | 0.65 ± 0.052 | 1.922 ± 0.018 | 1.79 ± 0.068 | 0.577 ± 0.044
66 | CUAAUC | 0.365 ± 0.027 | 1.94 ± 0.037 | 1.9 ± 0.043 | 0.43119 ± 0.00031
67 | AUAGCA | 0.241 ± 0.047 | 1.88 ± 0.033 | 1.78 ± 0.023 | 0.455 ± 0.093
68 | AUAGCG | -0.227 ± 0.035 | 1.87 ± 0.045 | 1.36 ± 0.057 | -0.0558 ± 0.023
69 | UUCAAA | 0.11 ± 0.051 | 1.95 ± 0.026 | 1.802 ± 0.0086 | 0.0695 ± 0.15
70 | UUCAAU | -0.589 ± 0.025 | 1.937 ± 0.015 | 1.81 ± 0.024 | -0.1336 ± 0.00015
71 | UUCAAG | 0.352 ± 0.023 | 1.907 ± 0.0058 | 1.72 ± 0.056 | 0.545 ± 0.024
